The results in this text go back to patent US20100098709A1 (AstraZeneca / MedImmune, published 2010).

Residue numbers refer to the chain shown, from its start.

In assay [1] the target is T1, FLAG HIS tagged soluble IL-6Ra (human, UniProt P08887 20-358, limits assumed).
T1 construct: the key was followed; also called HIS FLAG sIL-6R; FLAG-sIL-6R
T1 sequence: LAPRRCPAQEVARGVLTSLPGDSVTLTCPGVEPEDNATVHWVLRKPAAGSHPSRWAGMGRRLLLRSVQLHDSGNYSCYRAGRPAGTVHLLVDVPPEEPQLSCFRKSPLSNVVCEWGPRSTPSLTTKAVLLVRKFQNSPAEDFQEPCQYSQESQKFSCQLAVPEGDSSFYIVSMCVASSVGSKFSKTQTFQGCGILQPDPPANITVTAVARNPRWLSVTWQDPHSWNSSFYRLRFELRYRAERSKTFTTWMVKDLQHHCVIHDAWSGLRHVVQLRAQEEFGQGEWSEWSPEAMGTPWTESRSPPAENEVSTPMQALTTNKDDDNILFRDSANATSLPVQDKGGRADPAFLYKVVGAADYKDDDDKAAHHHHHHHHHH
Put plainly: phage ELISA. (In general: ELISA stands for enzyme-linked immunosorbent assay.)

The target of assay [2] is T1, FLAG HIS tagged soluble IL-6Ra. As to the kind of experiment: phage ELISA, antigen on anti-FLAG plate.
In assay [3] the target is T2, biotinylated anti-FLAG monoclonal antibody (Sigma F9291).
T2 construct: Control coat of the phage ELISA plates (streptavidin plate treated with the anti-FLAG antibody, then MPBS only); also called anti FLAG antibody treated plates alone
Put plainly: phage ELISA, anti-FLAG treated plate alone.

Assay [4] has as its target T1, FLAG HIS tagged soluble IL-6Ra. As to the kind of experiment: ELISA and HTRF soluble binding assay, IgG.
The target is the same in assay [5]. As to the kind of experiment: ELISA, IgG captured by anti-human Fc, 50 nM protein. The protocol: (§1) Immunoassay plates were washed 3 times using PBST, then blocked by addition of 300 μl/well MPBS for 1 h at room temperature. After a second washing step 2 μg/ml of the anti-complex antibody in PBS was added to the plate at 50 μl/well. The plates were incubated for 1 h at room temperature before being washed again as previously described. FLAG-tagged reagents (IL-6, sIL-6R, Hyper Complexes) were diluted to 50 nM in MPBS. Complexes were made using 50 nM of the FLAG-tagged component and a 2-fold molar excess of the untagged component. Four-fold serial dilutions were prepared of each of the reagents, which were then added to duplicate wells of the immunoassay plates at 50 μl/well. Control wells containing 50 nM irrelevant protein (in this case his FLAG tagged murine GMCSF-R), or MPBS only were also prepared. The immunoassay plates were then incubated for 1 h at room temperature. After a further washing step, biotinylated anti-FLAG monoclonal antibody (Sigma) diluted to 1 μg/ml in MPBS was added to all wells at 50 μl/well. The plates were incubated for 1 h at room temperature before the plates were again washed as before. Europium labelled streptavidin (Perkin Elmer 1244-360) was diluted to 100 ng/ml in Delfia assay buffer (Perkin Elmer 4002-0010), added to all wells at 50 μl/well and incubated for 1 h at room temperature. The immunoassay plates were then washed 7 times in Delfia wash buffer, consisting of 0.05 M Tris buffered saline (NaCl-0.138 M, KCl-0.0027 M) Tween 20 (0.05%), pH 8.0 (at 25° C.). A 50 μl volume of Delfia enhancement solution (Perkin Elmer 4001-0010) was then added to all wells. The plates were incubated for 10 mins before the Time-resolved fluorescence was measured at 620 nm using an EnVision plate reader.

The target is the same in assay [6]. As to the kind of experiment: HTRF soluble binding assay, 1 nM IgG, 20 nM HIS FLAG protein. The protocol:
(§2) Purified IgG from positive clones identified from screening of crude periplasmic scFv and purified scFv, were tested in a HTRF® assay for binding to FLAG HIS tagged Hyper IL-6, FLAG HIS IL-6 and FLAG HIS sIL-6R.
(§3) Example data for binding of IgG of positive clones identified from screening of crude periplasmic scFv. Data shown in table 3 is expressed as % delta F at an IgG concentration of 1 nM (final assay concentration) and 20 nM of HIS FLAG protein (final assay concentration).
(Time-resolved FRET reads energy transfer from a long-lived donor to a nearby acceptor.)

For assay [7], the target named is T3, HIS FLAG irrelevant ligand.
T3 construct: Unnamed control of the HTRF soluble assay; also called irrelevant FLAG HIS ligand
The description is as above. The protocol: as §2, §3

The target of assay [8] is T4, HIS FLAG irrelevant receptor.
T4 construct: Unnamed control of the HTRF soluble assay; also called irrelevant FLAG HIS receptor
The description is as above. The protocol:
as §2, §3

Assay [9] deals with T5, HIS FLAG tagged human IL-6 (human, UniProt P05231 30-212).
T5 construct: also called HIS FLAG IL-6; FLAG-IL-6
As to the kind of experiment: ELISA and HTRF soluble binding assay, IgG.

For assay [10], the target named is T5, HIS FLAG tagged human IL-6. As to the kind of experiment: ELISA, IgG captured by anti-human Fc, 50 nM protein. The procedure: as §1
In assay [11] the target is T6, Complex 1: HIS FLAG IL-6/sIL-6R (human, UniProt P05231 30-212; P08887 20-358, limits assumed).
T6 construct: Non-covalent complex made by pre-incubating the two proteins; The untagged sIL-6R was bought; also called IL-6/sIL-6R complex consisting of FLAG tagged ligand and untagged receptor
The assay is described as above. The procedure:
as §1

Assay [12] has as its target T7, Complex 2: IL-6/HIS FLAG sIL-6R (human, UniProt P05231 30-212; P08887 20-358, limits assumed).
T7 construct: Non-covalent complex made by pre-incubating the two proteins; Untagged IL-6 was bought; also called IL-6/sIL-6R complex consisting of untagged ligand and FLAG tagged receptor
The description is as above. The protocol: as §1

The target in assay [13] is T8, FLAG HIS tagged Hyper IL-6.
T8 construct: also called HIS FLAG Hyper IL-6
The description is as above. The procedure:
as §1

Assay [14] has as its target T5, HIS FLAG tagged human IL-6. Put plainly: HTRF soluble binding assay, 1 nM IgG, 20 nM HIS FLAG protein. The protocol: as §2, §3
In assay [15] the target is T8, FLAG HIS tagged Hyper IL-6. Described as above. The protocol:
as §2, §3

In assay [16] the target is T8, FLAG HIS tagged Hyper IL-6. As to the kind of experiment: HTRF, inhibition of Hyper IL-6 binding to biotinylated gp130 Fc; IgG. The procedure:
Purified IgG from positive clones identified from screening of crude periplasmic scFv and purified scFv were tested in a HTRF® assay for inhibition of binding of FLAG HIS tagged Hyper IL-6 binding to biotinylated recombinant human gp130 Fc. This assay was performed as for purified scFv (Example 3) with the following modifications. 6 nM biotinylated human recombinant gp130 Fc (10 μl/well) was used to give a final concentration of 1 nM of gp130Fc.
Purified scFv were diluted 1:3 by transferring 15 μl of purified scFv to 30 μl assay buffer and mixing by pipetting in 96 well plate (Greiner 650201). Dilutions were carried out sequentially in duplicate a further 9 times. 3 nM GP130 Fc (10 μl/well) to give a final concentration of 0.5 nM, 6 nM Hyper IL-6 (10 μl/well) to give a final concentration of 1 nM and combined HTRF reagents 2.598 nM anti-flag IgG labelled with cryptate and 30 nM anti-human Fc antibody labelled with XL665 (10 μl/well) were added to 30 μl of purified scFv titration in 96 well plate. 40 μl was then transferred to a black 384 well optiplate. All dilutions were performed in assay buffer.

B1: Antibody 2 scFv (scFv, V domains shown)
VH: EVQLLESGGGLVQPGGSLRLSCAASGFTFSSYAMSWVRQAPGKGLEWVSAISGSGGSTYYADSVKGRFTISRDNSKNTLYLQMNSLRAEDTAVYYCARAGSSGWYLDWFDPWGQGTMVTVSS
VL: QAVLTQPSSVSGAPGQRVTISCAGSSSNIGAGYDVHWYQQVPGTAPKLLIYGDTNRPSGVPDRFSGSKFGTSASLTITGLQAEDEADYYCQSYDNSLSTSDWVFGGGTKVTVLG
notes: also called Ab 2
For B1, the binding result in assay [1] is “no binding”. The results for the “Absorbance (450 nM)” value in assay [2] and in [3] were 0.083 and 0.052, respectively.

B2: Antibody 2 IgG (antibody, V domains shown)
VH: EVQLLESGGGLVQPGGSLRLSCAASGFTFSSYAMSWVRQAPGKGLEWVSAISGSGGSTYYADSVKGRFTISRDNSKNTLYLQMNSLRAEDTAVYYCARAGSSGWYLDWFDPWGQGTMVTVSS
VL: B1 VL
notes: also called Ab 2
For the molecule B2, the binding result in assay [4] was “no binding”. For the same molecule, the “Europium Counts” value in [5] came out at 2450 counts. In addition, the “% delta F” value in assay [6] stood at 10%; in assay [7], 11%; in [8], 5%.

B3: Antibody 4 scFv (scFv, V domains shown)
VH: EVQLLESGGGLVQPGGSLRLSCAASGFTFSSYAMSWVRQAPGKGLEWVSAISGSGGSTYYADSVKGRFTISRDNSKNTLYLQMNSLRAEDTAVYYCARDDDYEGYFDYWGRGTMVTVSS
VL: QAVLTQPSSVSGAPGQRVSISCTGSSSNIGAGYEVHWYQHLPGTAPKLLIYGNNNRPSGVPDRFSGSKSGTSASLAITGLQAEDEADYYCQSYDNNLPGSRVFGGGTKVTVLG
notes: also called Ab 4
Turning to B3, the binding result in [1] was “no binding”. The “Absorbance (450 nM)” value in [2] was determined as 0.167; in assay [3], 0.053.

B4: Antibody 4 IgG (antibody, V domains shown)
VH: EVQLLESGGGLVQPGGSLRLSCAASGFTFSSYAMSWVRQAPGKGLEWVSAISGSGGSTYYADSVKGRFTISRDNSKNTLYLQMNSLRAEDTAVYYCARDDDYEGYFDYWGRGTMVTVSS
VL: B3 VL
notes: also called Ab 4
With B4, in [4], the binding result was “no binding”. In assay [5], the “Europium Counts” value turned out to be 2000 counts. Also, the “% delta F” value in assay [6] came to 18%; in assay [7], 13%; in assay [8] it was 7%.

B5: Antibody 1 scFv (scFv, V domains shown)
VH: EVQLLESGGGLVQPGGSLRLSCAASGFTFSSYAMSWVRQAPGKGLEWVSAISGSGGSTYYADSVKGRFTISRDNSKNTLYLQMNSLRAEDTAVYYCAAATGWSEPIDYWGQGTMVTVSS
VL: SYVLTQPPSVSVAPGQTATITCGGNNIGLKSVHWYQQKPGQAPLLVVHDDSARPSGIPERFSGSNSGNTATLTISRVEAGDEADYSCQVWDNSGGLWVFGGGTKVTVLG
notes: also called Ab 1
Regarding B5, in [1], the binding result was “no binding”. The “Absorbance (450 nM)” value in [2] was determined as 0.059; in [3], 0.052.

B6: Antibody 1 IgG (antibody, V domains shown)
VH: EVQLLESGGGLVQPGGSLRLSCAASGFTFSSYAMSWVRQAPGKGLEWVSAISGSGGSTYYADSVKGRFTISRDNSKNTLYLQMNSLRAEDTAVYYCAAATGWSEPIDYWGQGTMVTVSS
VL: B5 VL
notes: also called Ab 1
Turning to B6, the binding result in assay [4] was “no binding”. The “Europium Counts” value in assay [5] amounted to 1340 counts. Also, the “% delta F” value was found to be 4% in assay [6], 8% in assay [7] and 11% in assay [8].

B7: Antibody 3 scFv (scFv, V domains shown)
VH: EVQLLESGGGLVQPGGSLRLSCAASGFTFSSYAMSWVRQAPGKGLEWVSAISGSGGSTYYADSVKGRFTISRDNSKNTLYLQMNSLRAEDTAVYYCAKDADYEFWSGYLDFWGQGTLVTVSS
VL: QSVLTQPPSVSGAPGQRVNISCTGSSSNIGAGYDVHWYQQLPGTAPKLLIYGNNNRPSGVPDRFSGSKSGTSASLAITGLQAEDEADYYCQSYDSSLSGYVFGTGTKVTVLG
notes: also called Ab 3
As to B7, the binding result in [1] is “no binding”. Further, the “Absorbance (450 nM)” value in assay [2] stood at 0.056; in assay [3] it was 0.049.

B8: Antibody 5 IgG (antibody, V domains shown)
VH: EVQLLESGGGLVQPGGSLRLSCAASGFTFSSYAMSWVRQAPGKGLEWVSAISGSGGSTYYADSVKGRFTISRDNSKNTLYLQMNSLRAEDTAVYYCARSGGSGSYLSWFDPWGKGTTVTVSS
VL: B7 VL with N19T, N54S, Y100W, T104G
notes: also called Ab 5
By IC50 is commonly meant the concentration that inhibits the measured activity by half. High values mean weaker potency in that assay, low ones greater potency in that assay. For B8, the binding result in assay [9] and in assay [4] was “no binding” each time. In addition, the “Europium Counts” value in [10] stood at 1730 counts; in assay [5], 1500 counts; in assay [11], 120000 counts; in assay [12], 417000 counts; in assay [13] it was 383000 counts. Moreover, the “% delta F” value in [14] came to 4%; in [6], 9%; in assay [15], 331%; in assay [7], 1%; in assay [8], 3%. Besides, the IC50 in assay [16] is 700 pM.

B9: Antibody 3 IgG (antibody, V domains shown)
VH: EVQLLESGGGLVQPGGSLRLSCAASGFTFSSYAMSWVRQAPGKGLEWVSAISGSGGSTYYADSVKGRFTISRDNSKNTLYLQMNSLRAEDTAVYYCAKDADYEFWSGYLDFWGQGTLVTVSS
VL: B7 VL
notes: also called Ab 3
Take B9: the binding result in [4] was “no binding”. The “Europium Counts” value in assay [5] turned out to be 1420 counts. In addition, the figures for the “% delta F” value in assay [6], in assay [7] and in assay [8] were 6%, 10% and 11%, respectively.
